Where a chain is given by its changes, count along the chain named.
T1: Human CD3eg linker (human)
T1 construct: Single-chain soluble construct; also called recombinant human CD3
T1 chain: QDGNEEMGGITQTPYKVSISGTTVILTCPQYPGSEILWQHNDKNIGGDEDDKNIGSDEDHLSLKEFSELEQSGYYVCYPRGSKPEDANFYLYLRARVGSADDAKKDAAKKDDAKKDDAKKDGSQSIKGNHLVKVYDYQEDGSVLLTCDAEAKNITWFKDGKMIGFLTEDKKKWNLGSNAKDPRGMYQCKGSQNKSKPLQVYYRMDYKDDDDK

B1: xGPC3/DualAE05-xSG1350k1349hV11 (bispecific antibody, V domains shown)
VH 1: QVQLVQSGAEVKKPGASVTVSCKASGYTFTDYEMHWIRQPPGEGLEWIGAIDGPTPDTAYSEKFKGRVTLTADKSTSTAYMELSSLTSEDTAVYYCTRFYSYTYWGQGTLVTVSS
VL 1: DIVMTQSPLSLPVTPGEPASISCRSSQPLVHSNRNTYLHWYQQKPGQAPRLLIYKVSNRFSGVPDRFSGSGSGTDFTLKISRVEAEDVGVYYCGQGTQVPYTFGQGTKLEIK
VH 2: QVQLVESGGGLVQPGRSLRLSCAASGFKFSNVWFHWVRQAPGKGLEWVAQIKDYYNAYAAYYAPSVKGRFTISRDDSKNSIYLQMNSLKTEDTAVYYCHYVHYASASTLLPAEGVDAWGQGTTVTVSS
VL 2: B1 VL 1 with R24Q, S25P, P28E, L29V, S32M, S61P, G94A, Q98S, V99H, Y101F
notes: 1+1 tri-specific, CrossMab format (VH/VL of the GPC3 arm exchanged, charge mutations in CH1/CL of the Dual arm); also called xGPC3/DualAE05-xSG1350kSG1349hV11; AE05 CrossMab
B2: GPC3/DualAE05-SG1364k1363hV11 (bispecific antibody, V domains shown)
VH 1: B1 VH 1
VL 1: B1 VL 1
VH 2: B1 VH 2
VL 2: B1 VL 1 with R24Q, S25P, P28E, L29V, S32M, S61P, G94A, Q98S, V99H, Y101F
notes: 1+1 tri-specific, FAST-Ig format; Same variable regions as m28, different constant-region charge mutations; Full chains not tied by name
B3: GPC3/DualAE05-SG1363k1364hV11 (bispecific antibody, V domains shown)
VH 1: B1 VH 1
VL 1: B1 VL 1
VH 2: B1 VH 2
VL 2: B1 VL 1 with R24Q, S25P, P28E, L29V, S32M, S61P, G94A, Q98S, V99H, Y101F
notes: 1+1 tri-specific, FAST-Ig format
B4: GPC3KE/DualAE05EK-SG1363k1365hV11 (bispecific antibody, V domains shown)
VH 1: B1 VH 1 with Q39K
VL 1: B1 VL 1 with Q43E
VH 2: B1 VH 2 with Q39E
VL 2: DIVMTQSPLSLPVTPGEPASISCQPSQEVVHMNRNTYLHWYQKKPGQAPRLLIYKVSNRFPGVPDRFSGSGSGTDFTLKISRVEAEDVGVYYCAQGTSHPFTFGQGTKLEIK
notes: 1+1 tri-specific, FAST-Ig format; Full chains not tied by name
B5: GPC3EK/DualAE05KE-SG1365k1363hV11 (bispecific antibody, V domains shown)
VH 1: B1 VH 1 with Q39E
VL 1: B1 VL 1 with Q43K
VH 2: B1 VH 2 with Q39K
VL 2: B4 VL 2 with K43E
notes: as for B4
B6: xGPC3/DualAE15-xSG1350k1349hV11 (bispecific antibody, V domains shown)
VH 1: B1 VH 1
VL 1: B1 VL 1
VH 2: B1 VH 2 with A60G, A63H, S105A, T108Q
VL 2: B4 VL 2 with K43Q
notes: 1+1 tri-specific, CrossMab format; Full chains not tied by name; also called xGPC3DualAE15-xSG1350kSG1349hV11; xGPC3/DualAE15-xSG1350kSG1349hV11
B7: H1572L0581 (antibody, V domains shown)
VH: B1 VH 2 with Y54K
VL: B4 VL 2 with K43Q
notes: Dual-Ig with an Fc; also called DualAE26; dBBDu183H1572/dBBDu072L0581
B8: H1579L0581 (antibody, V domains shown)
VH: B1 VH 2 with N31H, Y54K, E113F
VL: B4 VL 2 with K43Q
notes: Dual-Ig with an Fc; also called DualAE25; dBBDu183H1579/dBBDu072L0581
B9: H0888L0581 (antibody, V domains shown)
VH: B1 VH 2 with F34M, Y54K, Y55W, V101I, E113F, V115I
VL: B4 VL 2 with K43Q
notes: Dual-Ig with an Fc; also called DualAE02; dBBDu183H0888/dBBDu072L0581
B10: H1573L0581 (antibody, V domains shown)
VH: B1 VH 2 with E113F
VL: B4 VL 2 with K43Q
notes: Dual-Ig with an Fc; also called DualAE07; dBBDu183H1573/dBBDu072L0581
B11: H1595L0581 (antibody, V domains shown)
VH: B1 VH 2 with V32T, F34M, Y54K, V101I, E113F
VL: B4 VL 2 with K43Q
notes: Dual-Ig with an Fc; also called DualAE24; dBBDu183H1595/dBBDu072L0581
B12: H1644L0939 (antibody, V domains shown)
VH: B1 VH 2 with K28V
VL: B4 VL 2 with K43Q, R59V, S98H
notes: Dual-Ig with an Fc; also called DualAE16; dBBDu183H1644/dBBDu072L0939
B13: H0883 (antibody, V domains shown)
VH: B1 VH 2 with K28T, V32A, F34M, Y54K, Y55G, H99R, E113F
VL: B4 VL 2 with P25A, V29L, K43Q, H99V
notes: Dual-Ig with an Fc; also called DualAE27; dBBDu183H0883/dBBDu072L

Target: T1, Human CD3eg linker
Assay: SPR Biacore 8K, Ab captured on anti-human Fc, CD3 as analyte, 25 C
Experimental: (§1) Binding affinity of Dual-Ig antibodies to human CD3 were assessed at 25 degrees C. using Biacore 8K instrument (GE Healthcare). Anti-human Fc (GE Healthcare) was immobilized onto all flow cells of a CM4 sensor chip using amine coupling kit (GE Healthcare). Antibodies were captured onto the anti-Fc sensor surfaces, then recombinant human CD3 or CD137 was injected over the flow cell. All antibodies and analytes were prepared in ACES pH 7.4 containing 20 mM ACES, 150 mM NaCl, 0.05% Tween 20, 0.005% NaN₃. Sensor surface was regenerated each cycle with 3M MgCl₂. […] CD137 binding affinity assay was conducted in same condition except assay temperature was set at 37 degrees C.

Binder | Kd | koff | kon
B1 | 296 nM | 0.0275 s⁻¹ | 92900 M⁻¹ s⁻¹
B2 | 282 nM | 0.0263 s⁻¹ | 93400 M⁻¹ s⁻¹
B3 | 314 nM | 0.0278 s⁻¹ | 88500 M⁻¹ s⁻¹
B4 | 806 nM | 0.0611 s⁻¹ | 75900 M⁻¹ s⁻¹
B5 | 751 nM | 0.0628 s⁻¹ | 83500 M⁻¹ s⁻¹

Target: T1, Human CD3eg linker
Assay: SPR (Biacore T200, 25 degrees C), in-tandem blocking assay; antibody captured on anti-human Fc, 8 µM hCD3eg injected as analyte
Experimental: (§2) Biacore in-tandem blocking assay was performed to characterize non-simultaneous binding of Dual-Ig Ab for both CD3 and CD137. The assay was performed on Biacore T200 instrument (GE Healthcare) at 25 degrees C. in ACES pH 7.4 buffer containing 20 mM ACES, 150 mM NaCl, 0.05% Tween 20, 0.005% NaN₃. Anti-human Fc (GE Healthcare) was immobilized onto all flow cells of a CM4 sensor chip using amine coupling kit (GE Healthcare). Antibodies were captured onto the anti-Fc sensor surfaces, then 8 micro M CD3 was injected over the flow cell followed by an identical injection of 8 micro M CD137 in the presence of 8 micro M CD3. An increased of binding response for second injection was indicative of binding to different paratopes therefore a simultaneous binding interactions; whereas no enhancement or decreased of binding response for the 2nd injection was indicative of binding to the same or overlapping or adjacent paratopes, therefore a non-simultaneous binding interactions.

Binder | binding result
B6 | binds

Target: T1, Human CD3eg linker
Assay: SPR Biacore 8K, 25 C; reference xGPC3/DualAE05-xSG1350kSG1349hV11
Experimental: as §1
(§3) This is caused by faster off rate in FAST-Ig construct. […] This is caused by faster off rate in FAST-Ig construct.

Binder | fold weaker binding affinity than CrossMab xSG1350
B4 | ~3 fold
B5 | ~3 fold

Target: T2, Human CD137 extracellular domain (ECD) (human)
T2 construct: also called Human CD137 ECD; recombinant human CD137
Assay: SPR (Biacore T200, 25 degrees C), in-tandem blocking assay; antibody captured on anti-human Fc, first saturated with 8 µM hCD3eg, then 8 µM hCD137 injected in the presence of 8 µM hCD3eg
Experimental: as §2

T2 sequence (chain, as listed by the source limits assumed): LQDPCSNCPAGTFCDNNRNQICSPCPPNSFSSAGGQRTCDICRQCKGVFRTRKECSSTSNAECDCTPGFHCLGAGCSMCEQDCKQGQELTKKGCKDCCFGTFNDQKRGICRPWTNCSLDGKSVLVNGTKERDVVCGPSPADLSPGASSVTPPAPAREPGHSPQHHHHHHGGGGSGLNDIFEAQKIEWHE

Binder | binding result
B6 | binds

Target: T2, Human CD137 extracellular domain (ECD)
Assay: SPR Biacore 8K, 37 C; reference xGPC3/DualAE05-xSG1350kSG1349hV11
Experimental: as §1, §3

Binder | fold weaker binding affinity than CrossMab prepared antibodies
B2 | ~2 fold
B3 | ~2 fold

Target: T2, Human CD137 extracellular domain (ECD)
Assay: SPR Biacore 8K, Ab captured on anti-human Fc, CD137 as analyte, 37 C
Experimental: (§4) Binding affinity of Dual-Fab antibodies (Dual-Ig) to human CD3 were assessed at 25 degrees C. using Biacore 8K instrument (GE Healthcare). Anti-human Fc (GE Healthcare) was immobilized onto all flow cells of a CM4 sensor chip using amine coupling kit (GE Healthcare). Antibodies were captured onto the anti-Fc sensor surfaces, then recombinant human CD3 or CD137 was injected over the flow cell. All antibodies and analytes were prepared in ACES pH 7.4 containing 20 mM ACES, 150 mM NaCl, 0.05% Tween 20, 0.005% NaN₃. Sensor surface was regenerated each cycle with 3M MgCl₂. […] CD137 binding affinity assay was conducted in same condition except assay temperature was set at 37 degrees C.

Binder | Kd | koff | kon
B7 | 52.1 nM | 0.000722 s⁻¹ | 13900 M⁻¹ s⁻¹
B8 | 275 nM | 0.00406 s⁻¹ | 14800 M⁻¹ s⁻¹
B9 | 208 nM | 0.00311 s⁻¹ | 15000 M⁻¹ s⁻¹
B10 | 70.6 nM | 0.00103 s⁻¹ | 14600 M⁻¹ s⁻¹
B11 | 195 nM | 0.00269 s⁻¹ | 13800 M⁻¹ s⁻¹
B12 | 36.8 nM | 0.000444 s⁻¹ | 12100 M⁻¹ s⁻¹

Target: T1, Human CD3eg linker
Assay: SPR Biacore 8K, Ab captured on anti-human Fc, CD3 as analyte, 25 C
Remark: another data set of the same source
Experimental: as §4

Binder | Kd | koff | kon
B7 | 286 nM | 0.028 s⁻¹ | 97700 M⁻¹ s⁻¹
B8 | 273 nM | 0.034 s⁻¹ | 124000 M⁻¹ s⁻¹
B9 | 20.2 nM | 0.00192 s⁻¹ | 95000 M⁻¹ s⁻¹
B10 | 158 nM | 0.0188 s⁻¹ | 121000 M⁻¹ s⁻¹
B11 | 57 nM | 0.00658 s⁻¹ | 116000 M⁻¹ s⁻¹
B12 | 1450 nM | 0.0808 s⁻¹ | 55800 M⁻¹ s⁻¹
B13 | 110 nM | 0.00999 s⁻¹ | 90700 M⁻¹ s⁻¹

Target: T2, Human CD137 extracellular domain (ECD)
Assay: SPR Biacore 8K, Ab captured on anti-human Fc, CD137 as analyte, 37 C
Remark: another data set of the same source
Experimental: as §1

Binder | Kd | koff | kon
B1 | 40.5 nM | 0.000525 s⁻¹ | 13000 M⁻¹ s⁻¹
B2 | 54.7 nM | 0.000745 s⁻¹ | 13600 M⁻¹ s⁻¹
B3 | 79.5 nM | 0.00102 s⁻¹ | 12800 M⁻¹ s⁻¹
B4 | 38 nM | 0.000506 s⁻¹ | 13300 M⁻¹ s⁻¹
B5 | 43.5 nM | 0.00063 s⁻¹ | 14500 M⁻¹ s⁻¹
